Measurements taken from patent publication US20210355219A1 (HARPOON THERAPEUTICS, published 2021).
Substitutions are numbered along the chain they refer to.

B1: anti-Alb mask070 L040 anti-CD40, C2905, C2764, L040 (-) Protease (bispecific antibody, human IgG1, kappa)
heavy: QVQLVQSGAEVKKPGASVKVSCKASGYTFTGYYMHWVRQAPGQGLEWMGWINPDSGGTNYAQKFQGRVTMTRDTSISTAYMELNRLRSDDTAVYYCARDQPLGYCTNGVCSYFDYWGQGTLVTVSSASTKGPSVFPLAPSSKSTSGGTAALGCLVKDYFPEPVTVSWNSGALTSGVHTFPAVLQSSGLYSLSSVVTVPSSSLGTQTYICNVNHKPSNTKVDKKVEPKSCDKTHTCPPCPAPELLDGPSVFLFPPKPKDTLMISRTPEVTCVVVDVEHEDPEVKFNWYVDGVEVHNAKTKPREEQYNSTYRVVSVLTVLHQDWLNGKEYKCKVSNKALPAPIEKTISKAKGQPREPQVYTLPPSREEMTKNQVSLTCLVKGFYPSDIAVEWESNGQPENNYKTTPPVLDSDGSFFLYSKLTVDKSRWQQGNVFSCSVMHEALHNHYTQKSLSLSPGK
light: EVQLVESGGGLVQPGNSLTLSCAASGFTFSKFGMSWVRQARAASAGQGLEWVSSISGSGRDTLYADSVKGRFTISRDNAKTTLYLQMNSLRPEDTAVYYCTIGGSLSVSSQGTLVTVSSGGGGPQASTGRSGGGGSDIQMTQSPSSVSASVGDRVTITCRASQGIYSWLAWYQQKPGKAPNLLIYTASTLQSGVPSRFSGSGSGTDFTLTISSLQPEDFATYYCQQANIFPLTFGGGTKVEIKRTVAAPSVFIFPPSDEQLKSGTASVVCLLNNFYPREAKVQWKVDNALQSGNSQESVTEQDSKDSTYSLSSTLTLSKADYEKHKVYACEVTHQGLSSPVTKSFNRGEC
B2: anti-Alb mask070 L040 anti-CD40, C2905, C2764, L040 (+) Protease (antibody)
heavy: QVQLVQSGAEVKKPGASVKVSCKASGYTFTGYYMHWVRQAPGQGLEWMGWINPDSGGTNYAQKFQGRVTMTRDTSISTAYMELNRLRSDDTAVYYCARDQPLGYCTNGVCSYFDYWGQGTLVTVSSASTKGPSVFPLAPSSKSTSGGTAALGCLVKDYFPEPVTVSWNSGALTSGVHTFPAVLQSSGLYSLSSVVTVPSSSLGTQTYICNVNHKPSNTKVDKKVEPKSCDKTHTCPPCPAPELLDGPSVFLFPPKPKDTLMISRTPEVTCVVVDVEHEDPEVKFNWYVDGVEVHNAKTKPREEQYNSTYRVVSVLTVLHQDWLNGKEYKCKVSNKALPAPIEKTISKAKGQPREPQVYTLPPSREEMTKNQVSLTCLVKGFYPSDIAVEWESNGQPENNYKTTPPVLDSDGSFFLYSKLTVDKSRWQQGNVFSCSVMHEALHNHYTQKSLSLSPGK
light: B1 light
B3: Unmasked anti-CD40 C00697, C2764 (aCD40 Heavy Chain GDSE) (antibody, human IgG1, kappa, V domains shown)
VH: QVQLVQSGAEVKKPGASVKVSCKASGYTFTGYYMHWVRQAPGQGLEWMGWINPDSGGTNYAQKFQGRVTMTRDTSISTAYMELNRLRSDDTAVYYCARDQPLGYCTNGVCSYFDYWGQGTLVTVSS
VL: DIQMTQSPSSVSASVGDRVTITCRASQGIYSWLAWYQQKPGKAPNLLIYTASTLQSGVPSRFSGSGSGTDFTLTISSLQPEDFATYYCQQANIFPLTFGGGTKVEIKR
notes: Anti-CD40 light chain without an anti-Alb domain; also called Active mimic C00697, C2764; control active mimic
B4: anti-Alb-CD-1-A09 masked anti-CD40 protein with anti-CD40 heavy chain SEQ ID No. 73 (bispecific antibody, human IgG1, kappa)
heavy: not shown
light: EVQLVESGGGLVQPGNSLTLSCAASGFTFSKFGMSWVRQAPGSQKPGLEWVSSISGSGRDTLYADSVKGRFTISRDNAKTTLYLQMNSLRPEDTAVYYCTIGGSLSVSSQGTLVTVSSGGGGSGGGSGGGGSGGGSDIQMTQSPSSVSASVGDRVTITCRASQGIYSWLAWYQQKPGKAPNLLIYTASTLQSGVPSRFSGSGSGTDFTLTISSLQPEDFATYYCQQANIFPLTFGGGTKVEIKRTVAAPSVFIFPPSDEQLKSGTASVVCLLNNFYPREAKVQWKVDNALQSGNSQESVTEQDSKDSTYSLSSTLTLSKADYEKHKVYACEVTHQGLSSPVTKSFNRGEC
notes: Built as m2; Signal domain left out; Tested in conditioned media; also called aAlb-CD-1-A09
B5: anti-Alb-CD-2-A10 masked anti-CD40 protein with anti-CD40 heavy chain SEQ ID No. 73 (bispecific antibody, human IgG1, kappa)
heavy: not shown
light: EVQLVESGGGLVQPGNSLTLSCAASGFTFSKFGMSWVRQAVGTRETSGGLEWVSSISGSGRDTLYADSVKGRFTISRDNAKTTLYLQMNSLRPEDTAVYYCTIGGSLSVSSQGTLVTVSSGGGGSGGGSGGGGSGGGSDIQMTQSPSSVSASVGDRVTITCRASQGIYSWLAWYQQKPGKAPNLLIYTASTLQSGVPSRFSGSGSGTDFTLTISSLQPEDFATYYCQQANIFPLTFGGGTKVEIKRTVAAPSVFIFPPSDEQLKSGTASVVCLLNNFYPREAKVQWKVDNALQSGNSQESVTEQDSKDSTYSLSSTLTLSKADYEKHKVYACEVTHQGLSSPVTKSFNRGEC
notes: Built as m2; Signal domain left out; Tested in conditioned media; also called aAlb-CD-2-A10
B6: anti-Alb-CD-2-C11 masked anti-CD40 protein with anti-CD40 heavy chain SEQ ID No. 73 (bispecific antibody, human IgG1, kappa)
heavy: not shown
light: B5 light with V41L, T43R, G48V
notes: Built as m2; Signal domain left out; Tested in conditioned media; also called aAlb-CD-2-C11
B7: anti-Alb-CD-1-F06 masked anti-CD40 protein with anti-CD40 heavy chain SEQ ID No. 73 (bispecific antibody, human IgG1, kappa)
heavy: not shown
light: B5 light with G42R, E45R
notes: Built as m2; Signal domain left out; Tested in conditioned media; also called aAlb-CD-1-F06
B8: anti-Alb-CD-2-C05 masked anti-CD40 protein with anti-CD40 heavy chain SEQ ID No. 73 (bispecific antibody, human IgG1, kappa)
heavy: not shown
light: B5 light with V41L, T43R, R44H, T46S, G48V
notes: Built as m2; Signal domain left out; Tested in conditioned media; also called aAlb-CD-2-C05
B9: anti-Alb-CD-2-D09 masked anti-CD40 protein with anti-CD40 heavy chain SEQ ID No. 73 (bispecific antibody, human IgG1, kappa)
heavy: not shown
light: B5 light with G42R, E45G
notes: Built as m2; Signal domain left out; Tested in conditioned media; also called aAlb-CD-2-D09
B10: anti-Alb-CD-2-F10 masked anti-CD40 protein with anti-CD40 heavy chain SEQ ID No. 73 (bispecific antibody, human IgG1, kappa)
heavy: not shown
light: B5 light with T43P
notes: Built as m2; Signal domain left out; Tested in conditioned media; also called aAlb-CD-2-F10
B11: anti-Alb-CD-2-D06 masked anti-CD40 protein with anti-CD40 heavy chain SEQ ID No. 73 (bispecific antibody, human IgG1, kappa)
heavy: not shown
light: B5 light with V41M, G42N, T43R, R44H, T46N, S47D, G48R
notes: Built as m2; Signal domain left out; Tested in conditioned media; also called aAlb-CD-2-D06
B12: anti-Alb-CD-2-F09 masked anti-CD40 protein with anti-CD40 heavy chain SEQ ID No. 73 (bispecific antibody, human IgG1, kappa)
heavy: not shown
light: B5 light with V41P, G42Y, T43S, R44Q, E45P, S47K, G48A
notes: Built as m2; Signal domain left out; Tested in conditioned media; also called aAlb-CD-2-F09
B13: anti-Alb-CD-2-D07 masked anti-CD40 protein with anti-CD40 heavy chain SEQ ID No. 73 (bispecific antibody, human IgG1, kappa)
heavy: not shown
light: EVQLVESGGGLVQPGNSLTLSCAASGFTFSKFGMSWVRQARAATAGSGLEWVSSISGSGRDTLYADSVKGRFTISRDNAKTTLYLQMNSLRPEDTAVYYCTIGGSLSVSSQGTLVTVSSGGGGSGGGSGGGGSGGGSDIQMTQSPSSVSASVGDRVTITCRASQGIYSWLAWYQQKPGKAPNLLIYTASTLQSGVPSRFSGSGSGTDFTLTISSLQPEDFATYYCQQANIFPLTFGGGTKVEIKRTVAAPSVFIFPPSDEQLKSGTASVVCLLNNFYPREAKVQWKVDNALQSGNSQESVTEQDSKDSTYSLSSTLTLSKADYEKHKVYACEVTHQGLSSPVTKSFNRGEC
notes: Built as m2; Signal domain left out; Tested in conditioned media; also called aAlb-CD-2-D07
B14: anti-Alb-CD-2-D08 masked anti-CD40 protein with anti-CD40 heavy chain SEQ ID No. 73 (bispecific antibody, human IgG1, kappa)
heavy: not shown
light: B13 light with R41T, A42S, A43W, T44R, A45H, G46E, S47R
notes: Built as m2; Signal domain left out; Tested in conditioned media; also called aAlb-CD-2-D08
B15: anti-Alb mask070 anti-CD40 C2882, C2764 (aCD40 Heavy Chain GDSE) (bispecific antibody, human IgG1, kappa)
heavy: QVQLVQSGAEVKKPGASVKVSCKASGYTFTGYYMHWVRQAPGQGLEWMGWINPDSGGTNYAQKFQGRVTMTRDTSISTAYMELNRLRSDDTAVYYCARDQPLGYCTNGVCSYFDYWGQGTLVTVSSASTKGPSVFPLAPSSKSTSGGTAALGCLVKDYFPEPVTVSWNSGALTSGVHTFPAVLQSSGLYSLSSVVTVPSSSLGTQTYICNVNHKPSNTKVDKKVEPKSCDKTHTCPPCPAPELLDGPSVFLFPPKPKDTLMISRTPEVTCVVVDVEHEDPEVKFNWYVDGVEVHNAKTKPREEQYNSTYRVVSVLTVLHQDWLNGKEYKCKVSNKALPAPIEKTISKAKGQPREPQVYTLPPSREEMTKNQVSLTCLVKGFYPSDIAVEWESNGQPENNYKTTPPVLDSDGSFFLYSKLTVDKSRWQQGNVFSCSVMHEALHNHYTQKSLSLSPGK
light: B13 light with T44S, S47Q
notes: Non-cleavable linker; Purified by Protein A. Same light chain as m2 but with the GDSE heavy chain C2764; also called C2882 aAlb-CD40-mask070
B16: anti-Alb-CD-2-B07 masked anti-CD40 protein with anti-CD40 heavy chain SEQ ID No. 73 (bispecific antibody, human IgG1, kappa)
heavy: not shown
light: B13 light with R41V, A42R, A43P, T44R, A45G, G46T, S47G
notes: Built as m2; Signal domain left out; Tested in conditioned media; also called aAlb-CD-2-B07

How the values were obtained:
[1] = molecular target: CD40 on purified human B cells (human, UniProt P25942 21-277); assay: cell-based or functional assay
Sequence of CD40 on purified human B cells (P25942 21-277): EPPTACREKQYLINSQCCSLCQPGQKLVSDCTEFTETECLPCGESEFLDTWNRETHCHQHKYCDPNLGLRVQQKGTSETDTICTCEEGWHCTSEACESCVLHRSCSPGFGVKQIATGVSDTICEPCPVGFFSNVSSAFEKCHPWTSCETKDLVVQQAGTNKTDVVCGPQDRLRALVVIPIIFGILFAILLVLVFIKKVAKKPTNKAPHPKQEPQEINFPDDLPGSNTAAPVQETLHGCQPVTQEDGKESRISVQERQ
C00703 huCD40::Fc [2] = molecular target: T1, C00703 huCD40::Fc (human); assay: ELISA, immobilized huCD40; the reference of the shift
T1 construct: also called human CD40 protein; immobilized huCD40
T1 sequence (chain, as listed by the source limits assumed): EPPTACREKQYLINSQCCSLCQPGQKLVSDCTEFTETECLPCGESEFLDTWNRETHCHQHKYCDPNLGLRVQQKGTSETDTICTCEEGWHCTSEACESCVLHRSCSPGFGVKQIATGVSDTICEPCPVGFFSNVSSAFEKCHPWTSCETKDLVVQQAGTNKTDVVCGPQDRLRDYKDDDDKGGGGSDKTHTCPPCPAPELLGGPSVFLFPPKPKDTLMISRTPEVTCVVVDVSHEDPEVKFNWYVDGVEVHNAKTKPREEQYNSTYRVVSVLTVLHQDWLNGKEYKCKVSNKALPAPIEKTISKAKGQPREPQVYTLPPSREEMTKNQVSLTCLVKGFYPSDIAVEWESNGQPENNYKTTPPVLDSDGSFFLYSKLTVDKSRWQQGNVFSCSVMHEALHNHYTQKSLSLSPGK

C00703 huCD40::Fc [3] = molecular target: T1, C00703 huCD40::Fc; assay: ELISA, immobilized huCD40, purified protein
C00703 huCD40::Fc [4] = molecular target: T1, C00703 huCD40::Fc; assay: BLI (Octet); huCD40::Fc immobilized, masked protein at 100 nM in conditioned media; nm shift relative to unmasked control anti-Alb-anti-CD40
C00703 huCD40::Fc [5] = molecular target: T1, C00703 huCD40::Fc; assay: ELISA, immobilized huCD40; EC50 shift against unmasked anti-CD40

Binding response (% of control) (C00703 huCD40::Fc [4])	further results	Binder
–	Activity shift, B cell activation [1]: 2000 fold	B1
–	Activity shift, B cell activation [1]: 1 fold; EC50 (M), B cell activation (percentage of CD86 positive B cells, flow cytometry, 48 hours) [1]: 1.6e-11 M	B2
–	Binding shift (C00703 huCD40::Fc [2]): 1 fold; EC50 (C00703 huCD40::Fc [3]): 0.48 nM; Activity shift, B cell activation [1]: 1 fold; EC50 (M), B cell activation (percentage of CD86 positive B cells, flow cytometry, 48 hours) [1]: 2.1e-11 M	B3
67 % of control	–	B4
65 % of control	–	B5
63 % of control	–	B6
57 % of control	–	B7
31 % of control	–	B8
66 % of control	–	B9
63 % of control	–	B10
42 % of control	–	B11
75 % of control	–	B12
48 % of control	–	B13
68 % of control	–	B14
–	Binding shift (C00703 huCD40::Fc [5]): 52 fold; EC50 (C00703 huCD40::Fc [3]): 25 nM; Activity shift, B cell activation [1]: 2000 fold	B15
64 % of control	–	B16
